This assay addresses DREP2 CIDE domain (amino acids 1–84), wild-type (Drosophila melanogaster). The assay is described as follows: SEC-MALS; self-association; Superdex 200 HR 10/30 coupled to three-angle light scattering and refractive index detectors, 0.2 mL/min; wild type measured in 50 mM NaCl and in 1 M NaCl. Background: In gel filtration, larger molecules generally elute earlier.

Usually stoichiometry N stands for a count of units in the complex or per binding partner.

The substance “DREP2 CIDE domain (amino acids 1–84), wild-type (domain or fragment)” came in with a stoichiometry N of 16 to 18 molecules.

Source of the values: PMC6292858.
